The values below come from patent US20200087400A1 (EUREKA THERAPEUTICS, published 2020).

Numbering of substitutions follows the chain as printed.

To fix the notation:
B1: PSA146/HLA-A*02:01-specific scFv phage clone #9 (scFv, V domains shown)
VH: QVQLVQSGAEVKKPGASVKVSCKASGYTFTSYGISWVRQAPGQGLEWMGWISAYNGNTNYAQKLQGRVTMTTDTSTSTAYMELRSLRSDDTAVYYCARSSQYYVWDSWGQGTLVTVSS
VL: QSVVTQPPSVSGAPGQRVTISCTGSSSNFGAGYDVHWYQQLPGTAPKLLIYGNSNRPSGVPDRFSGSKSGTSASLAITGLQAEDEADYYCQSYDSSLSGWVFGGGTKLTVLG
B2: PSA146/HLA-A*02:01-specific scFv phage clone #13 (scFv, V domains shown)
VH: QVQLVQSGAEVKKPGASVKVSCKASGYTFTSYYMHWVRQAPGQGLEWMGGFDPEDGETIYAQKFQGRVTMTEDTSTDTAYMGLSSLRSEDTAVYYCARYSYDYWGQGTLVTVSS
VL: QAVVTQEPSLTVSPGGTVTLTCASSTGAVTSGYYPNWFQQKPGQAPRALIYSTSNKHSWTPARFSGSLLGGKAALTLSGVQPEDEAEYYCLLYYGGAYVFGTGTKVTVLG
B3: PSA146/HLA-A*02:01-specific scFv phage clone #14 (scFv, V domains shown)
VH: B2 VH with Q1E, S31G, Y33F, G82E, Y103L
VL: QTVVTQEPSLTVSPGGTVTLTCASSTGAVTSGYYPNWFQQKPGQAPRALIYSTSNKHSWTPARFSGSLLGGKAALTLSGVQPEDEAEYYCLLYYGGAQWVFGGGTKLTVLG
B4: PSA146/HLA-A*02:01-specific scFv phage clone #12 (scFv, V domains shown)
VH: QMQLVQSGSEVKKPGASVKVSCKASGYTFTSYGISWVRQAPGQGLEWMGWISAYNGNTDYVQKLQGRVTMTTDTSTNTAYMELGSLGSDDTAVYYCARTNYNKYDIWGQGTLVTVSS
VL: QSVLTQPPSVSGAPGQRVTISCTGSSSNIGAGYDVHWYQQLPGTAPKLLIYGNSNRPSGVPDRFSGSKSGTSASLAITGLQAEDEADYYCQSYDSSLSEVFGTGTKVTVLG
B5: PSA146/HLA-A*02:01-specific scFv phage clone #10 (scFv, V domains shown)
VH: QVQLVQSGAEVKKPGSSVKVSCKASGGTFSSYAISWVRQAPGQGLEWMGWINPNSGGTNYAQKFQGRVTMTRDTSISTAYMELSRLRSDDTAVYYCARWSYYYFQQFWSLDGWGQGTLVTVSS
VL: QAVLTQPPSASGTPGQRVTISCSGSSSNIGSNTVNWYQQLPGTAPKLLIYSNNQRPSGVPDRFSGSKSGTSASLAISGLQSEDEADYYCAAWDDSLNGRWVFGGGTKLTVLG

T13 sequence (b2m, as listed by the source): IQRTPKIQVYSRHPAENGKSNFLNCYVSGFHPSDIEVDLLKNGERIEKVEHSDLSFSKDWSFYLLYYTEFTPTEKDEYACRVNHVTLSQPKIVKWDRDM
T12 sequence (b2m, as listed by the source): as above

The first test deals with T1, Bio-P19 member A2E-3 (chain 2 carries a C-terminal BirA substrate peptide (BSP), enzymatically biotinylated; the BSP letters are not given in the patent and are left out).
T1 construct: also called biotinylated control peptide A2E-3/HLA-A*02:01 monomer
T1 sequence (beta, as listed by the source): as the sequence (b2m, as listed by the source) above
Briefly: phage ELISA, streptavidin plate, anti-M13-HRP. The procedure, abridged:
(§1)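 ELISA: clones incubated on streptavidin-captured biotinylated peptide/HLA-A*02:01 complex, detected by HRP-conjugated anti-M13 with absorbance at 450 nm. FACS: T2 cells, unloaded or peptide-loaded with β2M, stained sequentially on ice (30–60 min per step) with scFv phage, anti-M13 and R-PE anti-mouse IgG.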
For B1, the binding result is listed as “no binding”.
Take B2: the binding result is recorded as “no binding”.
On the same count and under the same terms, as for B3, the entry is “no binding”; as for B4, “no binding”.
Same read-out and setting: for B5 the value was “no binding”.

The next test deals with T2, Bio-P19 member A2E-14 (chain 2: C-terminal BirA substrate peptide (BSP), enzymatically biotinylated; its letters are not printed in the patent and it is left out).
T2 construct: also called biotinylated control peptide A2E-14/HLA-A*02:01 monomer
T2 sequence (b2m, as listed by the source): as above
Description: phage ELISA, streptavidin plate, anti-M13-HRP. Summed up:
as §1
As to B1, the binding result was “no binding”.
On the same count and under the same terms, for B2 the value was “no binding”; for B3, “no binding”; for B4, “no binding”.
In the case of B5, the binding result is listed as “no binding”.

Another test deals with T3, Bio-P19 member A2E-23 (chain 2 carries a C-terminal BirA substrate peptide (BSP), enzymatically biotinylated; the BSP letters are not given in the patent and are left out).
T3 construct: also called biotinylated control peptide A2E-23/HLA-A*02:01 monomer
T3 sequence (beta, as listed by the source): as the sequence (b2m, as listed by the source) above
Briefly: phage ELISA, streptavidin plate, anti-M13-HRP. The procedure, abridged:
as §1
For B1, the binding result is given as “no binding”.
Regarding B2, the binding result is “no binding”.
On the same count and under the same terms, for B3 the value was “no binding”.
With B4, the binding result is “no binding”.
The same measure, in the same setting: as for B5, the entry is “no binding”.

A further test deals with T4, Bio-P19 member A2E-15 (chain 2: C-terminal BirA substrate peptide (BSP), enzymatically biotinylated; its letters are not printed in the patent and it is left out).
T4 construct: also called biotinylated control peptide A2E-15/HLA-A*02:01 monomer
T4 sequence (b2m, as listed by the source): as above
Briefly: phage ELISA, streptavidin plate, anti-M13-HRP. Summed up: as §1
As for B1, the binding result is listed as “no binding”.
Regarding B2, the binding result is recorded as “no binding”.
As for B3, the binding result was “no binding”.
On the same count and under the same terms, for B4 the value was “no binding”; for B5, “no binding”.

For a further test, the target named is T5, Bio-P19 member A2E-5 (chain 2 carries a C-terminal BirA substrate peptide (BSP), enzymatically biotinylated; the BSP letters are not given in the patent and are left out).
T5 construct: also called biotinylated control peptide A2E-5/HLA-A*02:01 monomer
T5 sequence (beta, as listed by the source): as the sequence (b2m, as listed by the source) above
Briefly: phage ELISA, streptavidin plate, anti-M13-HRP. Summed up: as §1
As for B1, the binding result is given as “no binding”.
For the molecule B2, the binding result was “no binding”.
With B3, the binding result is given as “no binding”.
For the molecule B4, the binding result was “no binding”.
Regarding B5, the binding result was “no binding”.

The target of a further test is T6, Bio-P19 member A2E-17 (chain 2: C-terminal BirA substrate peptide (BSP), enzymatically biotinylated; its letters are not printed in the patent and it is left out).
T6 construct: also called biotinylated control peptide A2E-17/HLA-A*02:01 monomer
T6 sequence (b2m, as listed by the source): as above
Description: phage ELISA, streptavidin plate, anti-M13-HRP. Summed up: as §1
Regarding B1, the binding result was “no binding”.
On to B2, for which the binding result is given as “no binding”.
Turning to B3, the binding result is listed as “no binding”.
On the same count and under the same terms, as for B4, the entry is “no binding”; as for B5, “no binding”.

The target of a further test is T7, Bio-P19 member A2E-2 (chain 2 carries a C-terminal BirA substrate peptide (BSP), enzymatically biotinylated; the BSP letters are not given in the patent and are left out).
T7 construct: also called biotinylated control peptide A2E-2/HLA-A*02:01 monomer
T7 sequence (beta, as listed by the source): as the sequence (b2m, as listed by the source) above
Briefly: phage ELISA, streptavidin plate, anti-M13-HRP. The procedure, abridged:
as §1
For B1, the binding result was “no binding”.
On the same count and under the same terms, for B2 the value was “no binding”; for B3, “no binding”.
As for B4, the binding result is given as “no binding”.
On the same count and under the same terms, for B5 the value was “no binding”.

The target in a further test is T8, Bio-P19 member A2E-13 (chain 2: C-terminal BirA substrate peptide (BSP), enzymatically biotinylated; its letters are not printed in the patent and it is left out).
T8 construct: also called biotinylated control peptide A2E-13/HLA-A*02:01 monomer
T8 sequence (b2m, as listed by the source): as above
Briefly: phage ELISA, streptavidin plate, anti-M13-HRP. The procedure, abridged:
as §1
For B1, the binding result is recorded as “no binding”.
Take B2: the binding result is on record as “no binding”.
As to B3, the binding result is “no binding”.
On the same count and under the same terms, for B4 the value was “no binding”; for B5, “no binding”.

The target in a further test is T9, Bio-P19 member A2E-21 (chain 2 carries a C-terminal BirA substrate peptide (BSP), enzymatically biotinylated; the BSP letters are not given in the patent and are left out).
T9 construct: also called biotinylated control peptide A2E-21/HLA-A*02:01 monomer
T9 sequence (beta, as listed by the source): as the sequence (b2m, as listed by the source) above
Briefly: phage ELISA, streptavidin plate, anti-M13-HRP. Summed up: as §1
For the molecule B1, the binding result was “no binding”.
For B2, the binding result is listed as “no binding”.
On to B3, for which the binding result is “no binding”.
Same read-out and setting: for B4 the value was “no binding”.
The same measure, in the same setting: as for B5, the entry is “no binding”.

The target in the next test is T10, Bio-P19 member A2E-8 (chain 2 (heavy): C-terminal BirA substrate peptide, biotinylated there by BirA; tag letters not given, left out).
T10 construct: also called biotinylated control peptide A2E-8/HLA-A*02:01 monomer; not shown: BirA substrate peptide (BSP) tag at the C-terminus of the heavy chain
T10 sequence (b2m, as listed by the source): as above
Briefly: phage ELISA, streptavidin plate, anti-M13-HRP. The procedure, abridged: as §1
In the case of B1, the binding result was “no binding”.
The same measure, in the same setting: as for B2, the entry is “no binding”; as for B3, “no binding”; as for B4, “no binding”.
With B5, the binding result is on record as “no binding”.

For the next test, the target named is T11, Bio-P19 member A2E-6 (chain 2 carries a C-terminal BirA substrate peptide (BSP), enzymatically biotinylated; the BSP letters are not given in the patent and are left out).
T11 construct: also called biotinylated control peptide A2E-6/HLA-A*02:01 monomer
T11 sequence (beta, as listed by the source): as the sequence (b2m, as listed by the source) above
Briefly: phage ELISA, streptavidin plate, anti-M13-HRP. Summed up:
as §1
In the case of B1, the binding result is given as “no binding”.
With B2, the binding result is on record as “no binding”.
As for B3, the binding result is listed as “no binding”.
The same measure, in the same setting: for B4 the value was “no binding”.
On the same count and under the same terms, for B5 the value was “no binding”.

The next test concerns the target T12, Bio-P19 member A2E-16 (chain 2: C-terminal BirA substrate peptide (BSP), enzymatically biotinylated; its letters are not printed in the patent and it is left out).
T12 construct: also called biotinylated control peptide A2E-16/HLA-A*02:01 monomer
Briefly: phage ELISA, streptavidin plate, anti-M13-HRP. The procedure, abridged:
as §1
Regarding B1, the binding result is listed as “no binding”.
On the same count and under the same terms, as for B2, the entry is “no binding”; as for B3, “no binding”; as for B4, “no binding”.
As to B5, the binding result is “no binding”.

Another test has as its target T13, Bio-P19 member A2E-10 (chain 2: C-terminal BirA substrate peptide (BSP), enzymatically biotinylated; its letters are not printed in the patent and it is left out).
T13 construct: also called biotinylated control peptide A2E-10/HLA-A*02:01 monomer
Description: phage ELISA, streptavidin plate, anti-M13-HRP. The procedure, abridged: as §1
As for B1, the binding result is reported as “no binding”.
Take B2: the binding result is reported as “no binding”.
On the same count and under the same terms, as for B3, the entry is “no binding”; as for B4, “no binding”; as for B5, “no binding”.

For the next test, the target named is T14, Bio-P19 member A2E-7 (chain 2 (heavy): C-terminal BirA substrate peptide, biotinylated there by BirA; tag letters not given, left out).
T14 construct: also called biotinylated control peptide A2E-7/HLA-A*02:01 monomer; not shown: BirA substrate peptide (BSP) tag at the C-terminus of the heavy chain
T14 sequence (b2m, as listed by the source): as above
Description: phage ELISA, streptavidin plate, anti-M13-HRP. Summed up: as §1
Take B1: the binding result is reported as “no binding”.
B2: the binding result is on record as “no binding”.
Consider B3, for which the binding result is recorded as “no binding”.
Still for that read-out and setting: as for B4, the entry is “no binding”; as for B5, “no binding”.

Another test deals with T15, Bio-P19 member A2E-11 (chain 2: C-terminal BirA substrate peptide (BSP), enzymatically biotinylated; its letters are not printed in the patent and it is left out).
T15 construct: also called biotinylated control peptide A2E-11/HLA-A*02:01 monomer
T15 sequence (b2m, as listed by the source): as above
Description: phage ELISA, streptavidin plate, anti-M13-HRP. The procedure, abridged: as §1
For B1, the binding result was “no binding”.
As to B2, the binding result is listed as “no binding”.
B3: the binding result is “no binding”.
As for B4, the binding result is recorded as “no binding”.
Same read-out and setting: as for B5, the entry is “no binding”.

The target of a further test is T16, Bio-P19 member A2E-1 (chain 2: C-terminal BirA substrate peptide (BSP), enzymatically biotinylated; its letters are not printed in the patent and it is left out).
T16 construct: also called biotinylated control peptide A2E-1/HLA-A*02:01 monomer
T16 sequence (b2m, as listed by the source): as above
Briefly: phage ELISA, streptavidin plate, anti-M13-HRP. The procedure, abridged:
as §1
As for B1, the binding result is recorded as “no binding”.
Regarding B2, the binding result was “no binding”.
As to B3, the binding result is “no binding”.
With B4, the binding result was “no binding”.
With B5, the binding result is listed as “no binding”.
